Measured values: paper doi:10.1101/2021.06.29.450403

Molecular target: recombinant rAQP4ct protein (complete cytosolic C-terminal domain of human AQP4, residues 254-323) (human) (UniProt P55087)
Assay: ITC

“Chicken calmodulin (CaM) (from UniProt P62149 1-149) (natural protein)” showed a stoichiometry N of 1.
